Reference: article PMC4282830

Target: guanidine hydrochloride denatured vitamin D binding protein (human) (UniProt P02774)
Assay: covalent complex formation, reducing SDS-PAGE and immunoblot

UniProt P02774, sequence (P02774 17-474): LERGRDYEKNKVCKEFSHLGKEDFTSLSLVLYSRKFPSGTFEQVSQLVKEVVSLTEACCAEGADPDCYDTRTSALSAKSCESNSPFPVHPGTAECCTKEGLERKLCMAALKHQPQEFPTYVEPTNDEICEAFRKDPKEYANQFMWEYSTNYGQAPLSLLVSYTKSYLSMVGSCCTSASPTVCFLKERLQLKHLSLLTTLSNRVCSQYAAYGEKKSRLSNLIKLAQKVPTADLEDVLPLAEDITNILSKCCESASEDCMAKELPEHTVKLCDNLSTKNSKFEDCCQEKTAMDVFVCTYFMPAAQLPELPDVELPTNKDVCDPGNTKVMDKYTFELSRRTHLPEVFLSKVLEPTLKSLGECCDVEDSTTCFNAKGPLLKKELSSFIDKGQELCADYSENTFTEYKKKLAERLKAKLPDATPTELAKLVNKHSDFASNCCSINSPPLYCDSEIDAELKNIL

- fold increase in intensity of the C3b:DBP band, denatured versus native DBP: 5 fold
Substance: complement C3b (natural protein)
